Experimental data reported in PMC9570212, “PAUF Induces Migration of Human Pancreatic Cancer Cells Exclusively via the TLR4/MyD88/NF-κB Signaling Pathway” (International Journal of Molecular Sciences, 2022).

Biological target: human TLR4 overexpressed in Panc-1 cells (Panc-1_TLR4^OE) (human, UniProt O00206 24-839)
Assay: cell-based or functional assay

Chain of human TLR4 overexpressed in Panc-1 cells (Panc-1_TLR4^OE) (O00206 24-839): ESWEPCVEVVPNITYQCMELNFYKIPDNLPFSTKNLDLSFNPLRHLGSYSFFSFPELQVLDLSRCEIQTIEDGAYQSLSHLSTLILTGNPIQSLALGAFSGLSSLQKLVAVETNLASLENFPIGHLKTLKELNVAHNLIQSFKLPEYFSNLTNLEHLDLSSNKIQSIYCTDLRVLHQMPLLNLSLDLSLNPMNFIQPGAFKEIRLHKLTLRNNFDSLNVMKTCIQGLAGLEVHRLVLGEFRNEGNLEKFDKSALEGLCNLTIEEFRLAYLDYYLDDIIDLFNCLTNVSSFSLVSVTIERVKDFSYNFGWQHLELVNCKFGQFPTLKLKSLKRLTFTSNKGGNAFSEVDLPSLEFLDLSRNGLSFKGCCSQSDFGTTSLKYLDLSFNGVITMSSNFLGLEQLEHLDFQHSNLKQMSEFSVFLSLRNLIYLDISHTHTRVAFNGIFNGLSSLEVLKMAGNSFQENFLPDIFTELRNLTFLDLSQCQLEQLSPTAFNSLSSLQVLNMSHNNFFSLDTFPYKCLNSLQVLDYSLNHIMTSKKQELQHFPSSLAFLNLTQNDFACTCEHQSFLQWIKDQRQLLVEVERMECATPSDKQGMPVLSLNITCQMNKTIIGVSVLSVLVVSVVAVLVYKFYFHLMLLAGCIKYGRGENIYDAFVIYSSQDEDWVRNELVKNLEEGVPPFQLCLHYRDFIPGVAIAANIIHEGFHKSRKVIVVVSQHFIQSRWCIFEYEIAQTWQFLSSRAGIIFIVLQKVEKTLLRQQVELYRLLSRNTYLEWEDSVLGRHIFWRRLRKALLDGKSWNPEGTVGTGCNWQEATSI

NF-κB dual-luciferase reporter activity in Panc-1 cells transiently overexpressing TLR4 (rPAUF 0.1 µg/mL), relative to Panc-1_trans Ctrl cells; no effect of rPAUF in control cells: 4.6 fold
B1: recombinant pancreatic adenocarcinoma up-regulated factor (PAUF) (ligand, UniProt Q96DA0 17-172, looked up)
chain: GKMYGPGGGKYFSTTEDYDHEITGLRVSVGLLLVKSVQVKLGDSWDVKLGALGGNTQEVTLQPGEYITKVFVAFQAFLRGMVMYTSKDRYFYFGKLDGQISSAYPSQEGQVLVGIYGQYQLLGIKSIGFEWNYPLEEPTTEPPVNLTYSANSPVGR
